Test [1] deals with Hepatocyte Growth Factor Activator (HGFA) serine protease domain, N-terminal His-tag, recombinant (Homo sapiens (Human)) (UniProt Q04756). The test is described as follows: fluorogenic inhibition assay.
For test [2], the target named is T1, matriptase (Charles Craik, UCSF), recombinant (Homo sapiens (Human), UniProt Q9Y5Y6).
T1 sequence: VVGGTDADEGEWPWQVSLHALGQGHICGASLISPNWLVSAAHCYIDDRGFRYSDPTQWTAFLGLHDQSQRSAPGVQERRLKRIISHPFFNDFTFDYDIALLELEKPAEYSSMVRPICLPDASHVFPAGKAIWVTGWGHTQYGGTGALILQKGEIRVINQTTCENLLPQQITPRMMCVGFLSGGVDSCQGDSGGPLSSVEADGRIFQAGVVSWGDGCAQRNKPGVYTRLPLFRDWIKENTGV
The test is described as follows: fluorogenic inhibition assay. How it is done: (§1) Inhibitors (11-pt serial dilutions, 0-20 μM final concentration in reaction) were serially diluted in DMSO (2% DMSO final concentration) and then mixed with either recombinant serine protease domain of HGFA [Z. Han, P. K. Harris, D. E. Jones, R. Chugani, T. Kim, M. Agarwal, W. Shen, S. A. Wildman, J. W. Janetka, Acs Med Chem Lett 2014, 5, 1219-1224], matriptase (Charles Craik, UCSF) or hepsin* (#4776-SE-010, R&D Systems, Minneapolis, Minn.) in black 384 well plates (Corning #3575. Corning, N.Y.). […] The final substrate concentrations for all assays were at the Kₘ for the respective enzymes. Changes in fluorescence (excitation at 380 nm and emission at 460 nm) were measured at room temperature over time in a Biotek Synergy 2 plate reader (Winnoski, Vt.). Using GraphPad Prism version 6.04 software program, (GraphPad Software, San Diego, Calif., www.graphpad.com), a four parameter curve fit was used to determine the inhibitor IC₅₀s from a plot of the mean reaction velocity versus the inhibitor concentration. The IC₅₀ values represent the average of three separate experimental determinations.
(§2) Fluorescent inhibitor and chromogenic proteolytic assays were performed in general accordance with the procedures described in Example 4 for compounds prepared in Examples 5 and 6.

Test [3] has as its target Recombinant human hepsin (4776-SE-010, R&D Systems), activated (human, UniProt P05981). The test is described as follows: fluorogenic inhibition assay. How it is done:
as §1, §2

In a further test the target is recombinant thrombin. The experiment in a line: selectivity inhibition assay.
The target of another test is Trypsin. The test is described as follows: selectivity inhibition assay.
The next test deals with Factor Xa. The experiment in a line: selectivity inhibition assay.
The target in test [4] is T1, matriptase (Charles Craik, UCSF), …. The test is described as follows: fluorogenic inhibition assay. The method, then:
as §1
This is another data set of the same source.

Where two headings read alike, the source gives them in different places. Positions of bridges follow the written chain, without caps; N, C: chain ends. No end group written: not given here. *: point of attachment. kbt‑6‑CONH‑4‑piperidine = ketobenzothiazole-6-CONH-4-piperidine (Kbt-4-piperidinylamide), O=C(NC1CCNCC1)c1ccc2nc(*)sc2c1; kbt‑6‑CONH‑4‑pyridine = ketobenzothiazole-6-CONH-4-pyridine (Kbt-4-pyridinylamide), O=C(Nc1ccncc1)c1ccc2nc(*)sc2c1; kbt‑6‑CONH‑Bn = ketobenzothiazole-6-CONH-benzyl (Kbt-benzylamide), O=C(NCc1ccccc1)c1ccc2nc(*)sc2c1; kbt‑6‑COOH = ketobenzothiazole-6-COOH, O=C(O)c1ccc2nc(*)sc2c1; kbt = C-terminal ketobenzothiazole, c1ccc2sc(*)nc2c1; Kbt = ketobenzothiazole, c1ccc2sc(*)nc2c1; kt = C-terminal ketothiazole, c1csc(*)n1; Fmoc = O=C(OCC1c2ccccc2-c2ccccc21)*

B1: Ac-SKLR(SEQ ID NO: 10)-Kbt (peptide)
peptide: Ac-SKLR-kbt
SMILES: CC(=O)N[C@@H](CO)C(=O)N[C@@H](CCCCN)C(=O)N[C@@H](CC(C)C)C(=O)N[C@@H](CCCNC(=N)N)C(=O)c1nc2ccccc2s1
Consider B1, for which the inhibition constant Ki in test [1] was 33 nM; in test [2], 3.05 nM; in test [3], 0.16 nM; with recombinant thrombin, over 20000 nM; with Trypsin, 0.16 nM; in the test with Factor Xa, 1900 nM.

As for Ac-SKLR-{kbt‑6‑CO-Val-NH2} [Ac-SKLR(SEQ ID NO: 10)-Kbt-Val-NH2], the Ki in test [1] was 13 nM; in test [2] it was 10.3 nM; in test [3] it was 0.19 nM; with recombinant thrombin, 4500 nM; with Trypsin, 0.34 nM; with Factor Xa it was 385 nM.

For the molecule Ac-SKLR (not fully specified (C-terminus)) [Ac-SKLR(SEQ ID NO: 10)-Kbt-Phe-NH2], the Ki in test [1] worked out at 17.3 nM; in test [2] it was 6.26 nM; in test [3], 0.14 nM; in the test with recombinant thrombin, 3640 nM; with Trypsin it was 0.27 nM; with Factor Xa, 544 nM.

Consider Ac-KRLR-{Kbt-Benzyl‑3‑COOMe} [Ac-KRLR(SEQ ID NO: 8)-kbt-Benzyl-3-COOMe], for which the inhibition constant (Ki) amounted to 7.76 nM in test [1]; 1.8 nM in test [2]; 0.36 nM in test [3]; 85.4 nM in the test with recombinant thrombin; 0.04 nM with Trypsin; 14 nM in the test with Factor Xa.

On to Ac-KRLR-Kbt (not fully specified) [Ac-KRLR(SEQ ID NO: 8)-Kbt-5-COOH], for which the inhibition constant (Ki) in test [1] worked out at 6.07 nM; in test [2], 5.14 nM; in test [3] it was 0.37 nM; with recombinant thrombin, 1940 nM; with Trypsin, 1.06 nM; with Factor Xa, 20.2 nM.

B2: Ac-FLFR(SEQ ID NO: 19)-Kbt (peptide)
peptide: Ac-FLFR-Kbt
SMILES: CC(=O)N[C@@H](Cc1ccccc1)C(=O)N[C@@H](CC(C)C)C(=O)N[C@@H](Cc1ccccc1)C(=O)N[C@@H](CCCNC(=N)N)C(=O)c1nc2ccccc2s1
Regarding B2, the Ki in test [1] is 114 nM; in test [2], 3.6 nM; in test [3], 1.44 nM; in the test with recombinant thrombin, over 20000 nM; with Trypsin, 0.27 nM; with Factor Xa, 13.1 nM.

Regarding Fmoc-Leu-Arg-kbt [Fmoc-LR-kbt], the Ki in test [1] stood at 450 nM; in test [2], 425 nM; in test [3] it was 115 nM; with recombinant thrombin it was 995 nM; with Trypsin, 19.8 nM; with Factor Xa, 410 nM.

B3: Ac-KRLR(SEQ ID NO: 8)-Kbt (peptide)
peptide: Ac-KRLR-Kbt
SMILES: CC(=O)N[C@@H](CCCCN)C(=O)N[C@@H](CCCNC(=N)N)C(=O)N[C@@H](CC(C)C)C(=O)N[C@@H](CCCNC(=N)N)C(=O)c1nc2ccccc2s1
As to B3, the Ki is 6 nM in test [1]; 0.54 nM in test [2]; 0.112 nM in test [3]; over 20000 nM with recombinant thrombin; 0.82 nM with Trypsin; 91.9 nM in the test with Factor Xa.

B4: Ac-SKLR(SEQ ID NO: 10)-Kbt-COOH (peptide)
peptide: Ac-SKLR-{kbt‑6‑COOH}
SMILES: CC(=O)N[C@@H](CO)C(=O)N[C@@H](CCCCN)C(=O)N[C@@H](CC(C)C)C(=O)N[C@@H](CCCNC(=N)N)C(=O)c1nc2ccc(C(=O)O)cc2s1
On to B4, for which the inhibition constant Ki in test [1] was 132 nM; in test [2] it was 54.8 nM; in test [3] it was 0.173 nM; with recombinant thrombin, over 2000 nM; with Trypsin, 0.03 nM; with Factor Xa, 1250 nM.

For Fmoc-Phe-Arg-kbt [Fmoc-FR-kbt], the inhibition constant (Ki) in test [1] was 964 nM; in test [2], 1280 nM; in test [3] it was 778 nM; with recombinant thrombin, over 2000 nM; with Trypsin, 14.3 nM; with Factor Xa, 28.4 nM.

In the case of Ac-SKLR-{kbt‑6‑CONH‑4‑piperidine} [Ac-SKLR(SEQ ID NO: 10)-Kbt-4-piperidinylamide], the Ki was 7.7 nM in test [1]; 1.28 nM in test [2]; 0.2 nM in test [3]; 2950 nM in the test with recombinant thrombin; 0.41 nM in the test with Trypsin; 447 nM in the test with Factor Xa.

Consider H-Leu-Leu-Arg-{kbt-Val-NH2} [H-LLR-kbt-Val-NH2], for which the Ki in test [1] was found to be 82.1 nM; in test [3], 0.88 nM; with recombinant thrombin it was 101 nM; with Trypsin it was 0.61 nM; in the test with Factor Xa, 159 nM.

As for H-Arg-Leu-Arg-kbt [H-RLR-kbt], the inhibition constant Ki is 83.1 nM in test [1]; 0.5 nM in test [3]; 8200 nM with recombinant thrombin; 0.13 nM with Trypsin; 56 nM in the test with Factor Xa.

As to Ac-SKLR-{kbt‑6‑CONH‑Bn} [Ac-SKLR(SEQ ID NO: 10)-Kbt-benzylamide], the inhibition constant Ki in test [1] worked out at 9.1 nM; in test [2], 0.36 nM; in test [3] it was 0.8 nM; with recombinant thrombin, 2470 nM; in the test with Trypsin it was 0.05 nM; with Factor Xa, 190 nM.

As for Ac-SKLR-{kbt‑6‑CONH‑4‑pyridine} [Ac-SKLR(SEQ ID NO: 10)-Kbt-4-pyridinylamide], the Ki in test [1] is 31.8 nM; in test [2], 3.95 nM; in test [3], 0.14 nM; with recombinant thrombin it was 3430 nM; with Trypsin it was 1.06 nM; with Factor Xa, 221 nM.

On to H-Trp-Leu-Arg-{kbt-Val-NH2} [H-WLR-kbt-Val-NH2], for which the Ki in test [1] is 73.9 nM; in test [2], 49.2 nM; in test [3], 1.31 nM; with recombinant thrombin, 41 nM; with Trypsin, 0.01 nM; with Factor Xa it was 159 nM.

Regarding Ac-KRLR-{Kbt-Benzyl‑4‑COOMe} [Ac-KRLR(SEQ ID NO: 8)-kbt-Benzyl-4-COOMe], the inhibition constant Ki in test [1] amounted to 5.85 nM; in test [2] it was 0.98 nM; in test [3], 0.26 nM; with recombinant thrombin, 20.9 nM; with Trypsin it was 0.05 nM; in the test with Factor Xa it was 9 nM.

H-Arg-Leu-Arg-{kbt-Val-NH2} [H-RLR-kbt-Val-NH2]: the Ki came to 12.5 nM in test [1]; 4.2 nM in test [2]; 0.44 nM in test [3]; 548 nM with recombinant thrombin; 0.31 nM with Trypsin; 18 nM with Factor Xa.

B5: H-WRLR(SEQ ID NO: 9)-Kbt (peptide)
peptide: H-WRLR-kbt
SMILES: CC(C)C[C@H](NC(=O)[C@H](CCCNC(=N)N)NC(=O)[C@@H](N)Cc1c[nH]c2ccccc12)C(=O)N[C@@H](CCCNC(=N)N)C(=O)c1nc2ccccc2s1
Take B5: the Ki turned out to be 8.75 nM in test [1]; 3.79 nM in test [2]; 0.12 nM in test [3]; 4890 nM in the test with recombinant thrombin; 0.96 nM with Trypsin; 2.4 nM in the test with Factor Xa.

For Ac-SKLR (not fully specified (C-terminus)) [Ac-SKLR(SEQ ID NO: 10)-Kbt-Trp-NH2], the inhibition constant (Ki) in test [1] worked out at 15.8 nM; in test [2], 3.74 nM; in test [3], 0.098 nM; with recombinant thrombin, 1230 nM; with Trypsin, 0.02 nM; in the test with Factor Xa, 163 nM.

For H-Trp-Leu-Arg-kbt [H-WLR-kbt], the inhibitory constant (Ki) in test [1] was 104 nM; in test [3], 1.52 nM; with recombinant thrombin, 457 nM; in the test with Trypsin, 0.05 nM; with Factor Xa, 532 nM.

Turning to H-KQDRR-kt (lactam 1-3; also: 3:1 D/L diastereomers at the alpha keto carbon) [H-cyclo(KQD)RR-kt], the inhibition constant Ki was 5940 nM in test [1] and 0.71 nM in test [4].
